Results published in article PMC5603524, “An alternate mode of oligomerization for E. coli SecA” (Scientific Reports, 2017).
“And” between values parts separate entries of the source, which are not always exact repeats. Identical values can stand only once.

Columns and labels:
SecA-N68∆N (E. coli) = SecA-N68∆N (E. coli) (UniProt P10408); experiment: AUC; sedimentation velocity, 20 °C, 50 mM Tris-HCl pH 7.5, 100 mM KCl, 2 mM EDTA, 5 mM MgCl2, 5 mM TCEP-HCl; SedFit analysis at a range of concentrations
SecA-N68∆C (E. coli) = SecA-N68∆C (E. coli) (UniProt P10408); experiment: as above
[1] = molecular target: the molecule itself; experiment: SEC; analytical gel filtration, Superdex 200 HR 10/30, 50 mM Tris-HCl pH 7.5, 100 mM KCl, 1 mM EDTA, 5 mM MgCl2, 5 mM β-mercaptoethanol, room temperature; H6-SecA-N68 applied at up to 4 mg/mL, SecA-N68∆NC at 10 mg/mL
[2] = molecular target: the molecule itself; experiment: AUC; sedimentation velocity, 20 °C, 50 mM Tris-HCl pH 7.5, 100 mM KCl, 2 mM EDTA, 5 mM MgCl2, 5 mM TCEP-HCl; SedFit analysis at a range of concentrations
[3] = molecular target: the molecule itself; experiment: AUC; sedimentation equilibrium, 20 °C, 50 mM Tris-HCl pH 7.5, 100 mM KCl, 2 mM EDTA, 5 mM MgCl2; global fit of nine curves at three rotor speeds; dimer to monomers

Molecule	stoichiometry N [2]	Kd [3] [µM]	further results
SecA-N68∆N (from UniProt P10408 15-610) (domain or fragment)	–	–	relative amount of the dimer at 4 mg/mL (SecA-N68∆N (E. coli)): 50%; stoichiometry N (SecA-N68∆N (E. coli)): 2
SecA-N68∆C (from UniProt P10408 1-590) (domain or fragment)	–	–	stoichiometry N (SecA-N68∆C (E. coli)): 2
H6-SecA-N68 (domain or fragment, E. coli, UniProt P10408 6-610, looked up, SecA, E. coli, residues 6 to 610; lacks the C-terminal helical domains; The tag MHHHHHH stands in place of the first residues of SecA and was not removed; also called His6-SecA-N68; N-terminal histidine-tagged version of SecA-N68; not shown: His6 (MHHHHHH), N-terminal, kept) LTKVFGSRNDRTLRRMRKVVNIINAMEPEMEKLSDEELKGKTAEFRARLEKGEVLENLIPEAFAVVREASKRVFGMRHFDVQLLGGMVLNERCIAEMRTGEGKTLTATLPAYLNALTGKGVHVVTVNDYLAQRDAENNRPLFEFLGLTVGINLPGMPAPAKREAYAADITYGTNNEYGFDYLRDNMAFSPEERVQRKLHYALVDEVDSILIDEARTPLIISGPAEDSSEMYKRVNKIIPHLIRQEKEDSETFQGEGHFSVDEKSRQVNLTERGLVLIEELLVKEGIMDEGESLYSPANIMLMHHVTAALRAHALFTRDVDYIVKDGEVIIVDEHTGRTMQGRRWSDGLHQAVEAKEGVQIQNENQTLASITFQNYFRLYEKLAGMTGTADTEAFEFSSIYKLDTVVVPTNRPMIRKDLPDLVYMTEAEKIQAIIEDIKERTAKGQPVLVGTISIEKSELVSNELTKAGIKHNVLNAKFHANEAAIVAQAGYPAAVTIATNMAGRGTDIVLGGSWQAEVAALENPTAEQIEKIKADWQVRHDAVLEAGGLHIIGTERHESRRIDNQLRGRSGRQGDAGSSRFYLSMEDALMRIFASDRVSGMMRKL	–	–	binding result [1]: binds
SecA-N68 with a wild-type N-terminus (domain or fragment, E. coli, UniProt P10408 1-610, looked up, NBD1, PPXD and NBD2 with the unstructured N- and C-termini) MLIKLLTKVFGSRNDRTLRRMRKVVNIINAMEPEMEKLSDEELKGKTAEFRARLEKGEVLENLIPEAFAVVREASKRVFGMRHFDVQLLGGMVLNERCIAEMRTGEGKTLTATLPAYLNALTGKGVHVVTVNDYLAQRDAENNRPLFEFLGLTVGINLPGMPAPAKREAYAADITYGTNNEYGFDYLRDNMAFSPEERVQRKLHYALVDEVDSILIDEARTPLIISGPAEDSSEMYKRVNKIIPHLIRQEKEDSETFQGEGHFSVDEKSRQVNLTERGLVLIEELLVKEGIMDEGESLYSPANIMLMHHVTAALRAHALFTRDVDYIVKDGEVIIVDEHTGRTMQGRRWSDGLHQAVEAKEGVQIQNENQTLASITFQNYFRLYEKLAGMTGTADTEAFEFSSIYKLDTVVVPTNRPMIRKDLPDLVYMTEAEKIQAIIEDIKERTAKGQPVLVGTISIEKSELVSNELTKAGIKHNVLNAKFHANEAAIVAQAGYPAAVTIATNMAGRGTDIVLGGSWQAEVAALENPTAEQIEKIKADWQVRHDAVLEAGGLHIIGTERHESRRIDNQLRGRSGRQGDAGSSRFYLSMEDALMRIFASDRVSGMMRKL	2 and 4	–	–
SecA-N95 (domain or fragment, E. coli, UniProt P10408 1-835, looked up, SecA, E. coli, truncated at residue 835 (stop codon after residue 835); source: E. coli BL21(DE3), purified (ammonium sulfate, PhenylSepharose, Cibacron Blue Sepharose, MonoQ)) MLIKLLTKVFGSRNDRTLRRMRKVVNIINAMEPEMEKLSDEELKGKTAEFRARLEKGEVLENLIPEAFAVVREASKRVFGMRHFDVQLLGGMVLNERCIAEMRTGEGKTLTATLPAYLNALTGKGVHVVTVNDYLAQRDAENNRPLFEFLGLTVGINLPGMPAPAKREAYAADITYGTNNEYGFDYLRDNMAFSPEERVQRKLHYALVDEVDSILIDEARTPLIISGPAEDSSEMYKRVNKIIPHLIRQEKEDSETFQGEGHFSVDEKSRQVNLTERGLVLIEELLVKEGIMDEGESLYSPANIMLMHHVTAALRAHALFTRDVDYIVKDGEVIIVDEHTGRTMQGRRWSDGLHQAVEAKEGVQIQNENQTLASITFQNYFRLYEKLAGMTGTADTEAFEFSSIYKLDTVVVPTNRPMIRKDLPDLVYMTEAEKIQAIIEDIKERTAKGQPVLVGTISIEKSELVSNELTKAGIKHNVLNAKFHANEAAIVAQAGYPAAVTIATNMAGRGTDIVLGGSWQAEVAALENPTAEQIEKIKADWQVRHDAVLEAGGLHIIGTERHESRRIDNQLRGRSGRQGDAGSSRFYLSMEDALMRIFASDRVSGMMRKLGMKPGEAIEHPWVTKAIANAQRKVESRNFDIRKQLLEYDDVANDQRRAIYSQRNELLDVSDVSETINSIREDVFKATIDAYIPPQSLEEMWDIPGLQERLKNDFDLDLPIAEWLDKEPELHEETLRERILAQSIEVYQRKEEVVGAEMMRHFEKGVMLQTLDSLWKEHLAAMDYLRQGIHLRGYAQKDPKQEYKRESFSMFAAMLESLKYEVISTLSKVQVRMPE	2	< 1	–
SecA-N95ΔN (domain or fragment, E. coli, UniProt P10408 15-835, looked up, SecA, E. coli, first 14 N-terminal residues removed, truncated at residue 835; also called SecA-N95∆N; SecA-N95ΔN14) DRTLRRMRKVVNIINAMEPEMEKLSDEELKGKTAEFRARLEKGEVLENLIPEAFAVVREASKRVFGMRHFDVQLLGGMVLNERCIAEMRTGEGKTLTATLPAYLNALTGKGVHVVTVNDYLAQRDAENNRPLFEFLGLTVGINLPGMPAPAKREAYAADITYGTNNEYGFDYLRDNMAFSPEERVQRKLHYALVDEVDSILIDEARTPLIISGPAEDSSEMYKRVNKIIPHLIRQEKEDSETFQGEGHFSVDEKSRQVNLTERGLVLIEELLVKEGIMDEGESLYSPANIMLMHHVTAALRAHALFTRDVDYIVKDGEVIIVDEHTGRTMQGRRWSDGLHQAVEAKEGVQIQNENQTLASITFQNYFRLYEKLAGMTGTADTEAFEFSSIYKLDTVVVPTNRPMIRKDLPDLVYMTEAEKIQAIIEDIKERTAKGQPVLVGTISIEKSELVSNELTKAGIKHNVLNAKFHANEAAIVAQAGYPAAVTIATNMAGRGTDIVLGGSWQAEVAALENPTAEQIEKIKADWQVRHDAVLEAGGLHIIGTERHESRRIDNQLRGRSGRQGDAGSSRFYLSMEDALMRIFASDRVSGMMRKLGMKPGEAIEHPWVTKAIANAQRKVESRNFDIRKQLLEYDDVANDQRRAIYSQRNELLDVSDVSETINSIREDVFKATIDAYIPPQSLEEMWDIPGLQERLKNDFDLDLPIAEWLDKEPELHEETLRERILAQSIEVYQRKEEVVGAEMMRHFEKGVMLQTLDSLWKEHLAAMDYLRQGIHLRGYAQKDPKQEYKRESFSMFAAMLESLKYEVISTLSKVQVRMPE	2	24.5	–
